This passage reports Ki results from article PMC10056440 (2023).

No end group written: not given here.

As usually defined, the Ki is the equilibrium dissociation constant of an inhibitor or competing ligand from its target.

The target of assay [1] is mKate2-Kv1.3 M1-D52 truncated (Homo sapiens, UniProt P22001). The assay can be described thus: competition with AgTx2-GFP, confocal, Neuro 2A cells.
Assay [2] concerns the target KcsA-Kv1.6 pore blocker binding site (Homo sapiens, UniProt P17658). The assay can be described thus: competition with AgTx2-GFP, confocal, spheroplasts.
Assay [3] has as its target KcsA-Kv1.1 pore blocker binding site (Homo sapiens, UniProt Q09470). The assay can be described thus: competition with AgTx2-GFP, confocal, spheroplasts.
The target of assay [4] is KcsA-Kv1.3 pore blocker binding site (Homo sapiens, UniProt P22001). The assay can be described thus: competition with AgTx2-GFP, confocal, spheroplasts.
KcsA-Kv1.3 pore blocker binding site, sequence (P22001 420-453): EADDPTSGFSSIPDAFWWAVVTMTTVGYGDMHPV

KcsA-Kv1.1 pore blocker binding site, sequence (Q09470 348-381): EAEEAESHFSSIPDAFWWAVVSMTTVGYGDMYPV
KcsA-Kv1.6 pore blocker binding site, sequence (P17658 398-431): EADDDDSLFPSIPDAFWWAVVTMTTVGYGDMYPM
mKate2-Kv1.3 M1-D52 truncated, sequence (P22001 53-575): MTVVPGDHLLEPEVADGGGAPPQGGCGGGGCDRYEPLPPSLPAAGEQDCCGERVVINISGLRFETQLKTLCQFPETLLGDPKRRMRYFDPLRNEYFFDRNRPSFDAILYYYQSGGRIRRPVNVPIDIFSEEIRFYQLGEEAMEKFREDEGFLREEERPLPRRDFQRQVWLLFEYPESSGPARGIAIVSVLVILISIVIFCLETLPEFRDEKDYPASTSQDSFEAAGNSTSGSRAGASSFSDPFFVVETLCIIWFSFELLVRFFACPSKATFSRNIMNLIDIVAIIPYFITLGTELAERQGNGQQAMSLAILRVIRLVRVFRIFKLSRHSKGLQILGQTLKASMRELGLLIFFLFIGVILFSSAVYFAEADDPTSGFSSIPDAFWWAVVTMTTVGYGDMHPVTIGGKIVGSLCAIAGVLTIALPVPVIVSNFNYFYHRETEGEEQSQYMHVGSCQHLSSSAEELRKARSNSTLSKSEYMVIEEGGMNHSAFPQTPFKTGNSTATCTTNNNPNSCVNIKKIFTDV

The molecule GVPINVSCTGSPQCIKPCKDAGMRFGKCMNRKCHCTPK (ends and bridges not checked; cysteine pairing not given here) [AgTx2, listing 1 of 4 here] displayed a Ki in assay [1] of 0.7 nM.
GVPINVSCTGSPQCIKPCKDAGMRFGKCMNRKCHCTPK (ends and bridges not checked; cysteine pairing not given here) [AgTx2, listing 2 of 4 here] yielded a Ki in assay [2] of 0.027 nM.
In assay [3], GVEINVKCSGSPQCLKPCKDAGMRFGKCMNRKCHCTPK (ends and bridges not checked; cysteine pairing not given here) [KTx1, listing 1 of 3 here] came in with a Ki of 3.8 nM.
On the same count and under the same terms, the value for GVPINVSCTGSPQCIKPCKDAGMRFGKCMNRKCHCTPK (ends and bridges not checked; cysteine pairing not given here) [AgTx2, listing 3 of 4 here] was 3.7 nM.
GVEINVKCSGSPQCLKPCKDAGMRFGKCMNRKCHCTPK (ends and bridges not checked; cysteine pairing not given here) [KTx1, listing 2 of 3 here] had a Ki in assay [2] of 0.016 nM.
As to GVPINVSCTGSPQCIKPCKDAGMRFGKCMNRKCHCTPK (ends and bridges not checked; cysteine pairing not given here) [AgTx2, listing 4 of 4 here], the affinity in assay [4] corresponds to a Ki of 0.039 nM.
GVEINVKCSGSPQCLKPCKDAGMRFGKCMNRKCHCTPK (ends and bridges not checked; cysteine pairing not given here) [KTx1, listing 3 of 3 here] displayed a Ki in assay [4] of 0.032 nM.
